{"source": "patent US20250332297A1", "about": "“DLL3-SPECIFIC BINDING CONSTRUCTS AND THEIR USE IN RADIOTHERAPY” (MOLECULAR PARTNERS AG, priority 2024, published 2025)", "molecules": {"B1": {"name": "MAM160: Two domain (2D) ankyrin repeat protein: serum albumin-specific domain (SEQ ID NO: 7), PT linker, DLL3-specific domain MAM120 (protein)", "chain": "DLGKKLLEAARAGQDDEVRELLKAGADVNAKDYFSHTPLHLAARNGHLKIVEVLLKAGADVNAKDFAGKTPLHLAADAGHLEIVEVLLKAGADVNAQDIFGKTPADIAADAGHEDIAEVLQKAAGSPTPTPTTPTPTPTTPTPTPTGSDLGTKLLSAAADGQDDEVRELLQAGADVNAKDLFGYTPLHLAAWRGHLEIVEVLLEAGADVNAKDAAGLTPLHLAAWFGHLEIVEVLLEAGADVNAQDVQGVTPADLAAKEGHEDIAEVLQQAA", "modifications": "Ankyrin repeat protein (MAM160)"}, "B2": {"name": "Rova: Rova antibody, DLL3-binding benchmark antibody used as positive control and comparison (antibody, chains of the INN, looked up, V domains shown)", "VH": "QVQLVQSGAEVKKPGASVKVSCKASGYTFTNYGMNWVRQAPGQGLEWMGWINTYTGEPTYADDFKGRVTMTTDTSTSTAYMELRSLRSDDTAVYYCARIGDSSPSDYWGQGTLVTVSS", "VL": "EIVMTQSPATLSVSPGERATLSCKASQSVSNDVVWYQQKPGQAPRLLIYYASNRYTGIPARFSGSGSGTEFTLTISSLQSEDFAVYYCQQDYTSPWTFGQGTKLEIK"}}, "key": {"[1]": {"assay": "Pharmacokinetic analysis in WT BALBc mice (serum, ELISA)", "format": "in vivo, mouse"}, "[2]": {"target": "T1, human DLL3 expressed on HEK293T-huDLL3 cells (Homo sapiens, UniProt Q9NYJ7)", "T1 construct": "expressed in transfected cells; host or cells: HEK293T-hDLL3", "T1 sequence (Q9NYJ7 27-618)": "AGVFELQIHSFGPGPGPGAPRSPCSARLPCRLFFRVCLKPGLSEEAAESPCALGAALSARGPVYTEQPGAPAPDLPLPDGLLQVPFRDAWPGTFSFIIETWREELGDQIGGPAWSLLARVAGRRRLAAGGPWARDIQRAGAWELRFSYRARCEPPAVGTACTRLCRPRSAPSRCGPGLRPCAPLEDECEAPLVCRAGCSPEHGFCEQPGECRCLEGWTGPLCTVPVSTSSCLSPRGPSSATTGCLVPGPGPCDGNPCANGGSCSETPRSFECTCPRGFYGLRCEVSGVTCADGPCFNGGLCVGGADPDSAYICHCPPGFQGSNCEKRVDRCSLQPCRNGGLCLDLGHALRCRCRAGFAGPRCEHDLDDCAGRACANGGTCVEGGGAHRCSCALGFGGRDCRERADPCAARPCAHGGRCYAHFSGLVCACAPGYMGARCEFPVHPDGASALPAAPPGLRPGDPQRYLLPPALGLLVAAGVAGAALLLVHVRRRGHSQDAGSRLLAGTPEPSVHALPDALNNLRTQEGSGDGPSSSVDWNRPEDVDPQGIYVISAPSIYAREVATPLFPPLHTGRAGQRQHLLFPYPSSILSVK", "assay": "Cell binding titration on HEK293T-hDLL3 cells", "format": "cell-based", "settings": "absence of human serum albumin, read-out: Cell binding EC50, w/o HSA", "protocol": "Cell binding titration assays were performed for selected His-tagged single domain (1 D) and two domain (2D) designed ankyrin repeat proteins to determine binding to human DLL3 expressed on HEK293T-huDLL3 cells in absence and presence of human serum albumin. Controls included Rova antibody as a positive control and a non-binding DARPin comprising SEQ ID NO: 21 as a negative control. HEK293T-hDLL3 cells are HEK293T cells that were stably transfected to express human DLL3 on their surface.\nIn brief, 1×10^5 cells/well were resuspended in 100 μl DARPin dilution (500 nM, 1:5 serial diluted) and incubated for 1 h at 4° C. Cells were washed twice with PBS and resuspended in 100 μl anti-DARPin antibody (rabbit anti-DARPin 1.4.8) and LIVE/DEAD fixable cell stain (1:1000, Thermo Fisher #L34957). This step was performed in absence and presence of […] Human Serum Albumin (CSL Behring #150570). After incubation and washing, cells were incubated with detection antibody for 30 minutes (Goat anti-Human IgG (H+L), AF647, Thermo Fisher #21445). Cells were fixed (Paraformaldehyde Solution, LucernaChem) and acquired at Attune N×T (Thermo Life Technologies). Raw fcs files were exported and analyzed using FlowJo software. MFI values of live AF647-positive cells were exported from FlowJo and plotted using GraphPad Prism software. None of the tested ankyrin repeat proteins show binding to the HEK293T wildtype cells."}, "[3]": {"target": "T1, human DLL3 expressed on HEK293T-huDLL3 cells", "assay": "Cell binding titration on HEK293T-hDLL3 cells", "format": "cell-based", "settings": "presence of human serum albumin (10 μM in FIG. 9 legend, 10 pM in the source), read-out: Cell binding EC50, with HSA"}, "[4]": {"settings": "natural lead-labelled DOTAM conjugate 1 mg/kg i.v., Tables 16, 17"}, "[5]": {"settings": "1 mg/kg i.v., MAM279 natural lead-labelled conjugate (time points 4-72 h), Rova unconjugated (4-168 h), Table 22"}, "[6]": {"settings": "1 mg/kg i.v., MAM279 natural lead-labelled conjugate, Rova unconjugated, Table 22"}}, "note": "Where two headings read alike, the source gives them in different places.", "data": [{"molecule": "B1", "values": [{"measurement": "AUCINF_pred", "setting": "[1]; [4]", "value": 4.5873, "unit": "µM·h"}, {"measurement": "AUC_% Back_Ext_pred", "setting": "[1]; [4]", "value": 1, "unit": "%"}, {"measurement": "AUC_% Extrap_pred", "setting": "[1]; [4]", "value": 0, "unit": "%"}, {"measurement": "AUClast", "setting": "[1]; [4]", "value": 4578.7, "unit": "nmol·h/L"}, {"measurement": "CI_pred", "setting": "[1]; [4]", "value": 7.4, "unit": "mL/h/kg"}, {"measurement": "Cmax", "setting": "[1]; [4]", "value": 625, "unit": "nM"}, {"measurement": "HL_Lambda_z", "setting": "[1]; [4]", "value": 8.3, "unit": "h"}, {"measurement": "Tmax", "setting": "[1]; [4]", "value": 1.98, "unit": "min"}, {"measurement": "Vss_pred", "setting": "[1]; [4]", "value": 0.060, "unit": "L/kg"}, {"measurement": "EC50", "setting": "[2]", "value": 18.9, "unit": "nM"}, {"measurement": "EC50", "setting": "[3]", "value": 36.6, "unit": "nM"}]}, {"molecule": "B2", "values": [{"measurement": "serum half-life", "setting": "[1]; 1 mg/kg i.v.", "value": "about 145 hours"}, {"measurement": "AUCINF_pre", "setting": "[1]; [5]", "value": 11.9183, "unit": "µM·h"}, {"measurement": "AUClast", "setting": "[1]; [5]", "value": 6636.1, "unit": "h*hr*nmol/L"}, {"measurement": "HL_Lambda_z", "setting": "[1]; [5]", "value": 145.8, "unit": "h"}, {"measurement": "AUC_%Back_Ext_pre", "setting": "[1]; [6]", "value": 0, "unit": "%"}, {"measurement": "AUC_%Extrap_Pred", "setting": "[1]; [6]", "value": 44, "unit": "%"}, {"measurement": "Cl_pred", "setting": "[1]; [6]", "value": 14, "unit": "mL/day/kg"}, {"measurement": "Cmax", "setting": "[1]; [6]", "value": 130, "unit": "nM"}, {"measurement": "Tmax", "setting": "[1]; [6]", "value": 1.98, "unit": "min"}, {"measurement": "Vss_pred", "setting": "[1]; [6]", "value": 0.12, "unit": "L/kg"}, {"measurement": "EC50", "setting": "[2]", "value": 0.1, "unit": "nM"}, {"measurement": "EC50", "setting": "[3]", "value": 0.3, "unit": "nM"}]}]}
